From US20240376170A1 (BRIGHT PEAK THERAPEUTICS, published 2024)
Values joined by “and” are separate entries in the source; they are usually repeats but may differ in a detail not shown here. Equal values may be shown once. Primed or numbered codes have the meaning given here. [ ]: non-standard residue; d: D form. Ygp = O-(8x polyethylene glycol-amino)-tyrosine (Tyr, amino-capped PEG8); Yn3 = O-(9x polyethylene glycol-azido)-tyrosine (Tyr, azide-capped PEG9); Ygp(7) = Tyr with amino-capped PEG8, O-(PEG8-amino)-tyrosine; Yn3(7) = Tyr with azide-capped PEG9, O-(PEG9-azido)-tyrosine; Ygp″ = O-(8x polyethylene glycol-amino)-tyrosine; Yn3″ = O-(9x polyethylene glycol-azido)-tyrosine; Ygp(3) = O-(PEG8-amino)-tyrosine; Yn3(3) = O-(PEG9-azido)-tyrosine; hSer = N[C@@H](CCO)C(=O)O; Nle = CCCC[C@H](N)C(=O)O; Dab = NCC[C@H](N)C(=O)O

Columns and labels:
[1] = molecular target: T1, IL-2 receptor βγ complex on C57BL/6 mouse splenocytes (mouse, UniProt P16297 27-539; P34902 23-369); experiment: cell-based or functional assay
T1 sequence (looked up) 1: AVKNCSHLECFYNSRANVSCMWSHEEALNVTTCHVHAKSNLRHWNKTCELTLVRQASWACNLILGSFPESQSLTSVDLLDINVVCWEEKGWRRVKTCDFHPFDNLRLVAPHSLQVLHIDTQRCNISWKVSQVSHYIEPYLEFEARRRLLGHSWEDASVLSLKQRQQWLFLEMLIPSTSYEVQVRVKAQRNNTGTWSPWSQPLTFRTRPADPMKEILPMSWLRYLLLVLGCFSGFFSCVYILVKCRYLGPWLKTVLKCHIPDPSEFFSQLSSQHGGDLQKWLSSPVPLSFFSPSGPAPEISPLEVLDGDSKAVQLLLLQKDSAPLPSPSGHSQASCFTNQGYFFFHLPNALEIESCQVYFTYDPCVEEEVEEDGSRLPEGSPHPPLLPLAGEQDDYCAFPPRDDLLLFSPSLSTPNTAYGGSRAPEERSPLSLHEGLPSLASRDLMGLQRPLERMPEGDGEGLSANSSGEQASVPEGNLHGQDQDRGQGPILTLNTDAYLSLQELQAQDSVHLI
T1 sequence (looked up) 2: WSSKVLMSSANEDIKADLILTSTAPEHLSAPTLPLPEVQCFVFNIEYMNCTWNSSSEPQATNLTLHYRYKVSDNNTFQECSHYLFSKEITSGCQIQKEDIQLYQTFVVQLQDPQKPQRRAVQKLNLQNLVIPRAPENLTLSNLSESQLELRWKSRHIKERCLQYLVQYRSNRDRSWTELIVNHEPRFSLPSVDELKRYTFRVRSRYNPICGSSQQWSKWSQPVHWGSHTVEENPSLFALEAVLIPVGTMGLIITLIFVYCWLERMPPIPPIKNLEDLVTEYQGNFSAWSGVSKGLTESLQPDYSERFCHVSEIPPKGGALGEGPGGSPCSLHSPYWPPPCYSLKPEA

IL-2 receptor βγ complex [2] = molecular target: T2, IL-2 receptor βγ complex (human, UniProt P14784 27-551; P31785 23-369); experiment: cell-based or functional assay
T2 sequence (looked up) 1: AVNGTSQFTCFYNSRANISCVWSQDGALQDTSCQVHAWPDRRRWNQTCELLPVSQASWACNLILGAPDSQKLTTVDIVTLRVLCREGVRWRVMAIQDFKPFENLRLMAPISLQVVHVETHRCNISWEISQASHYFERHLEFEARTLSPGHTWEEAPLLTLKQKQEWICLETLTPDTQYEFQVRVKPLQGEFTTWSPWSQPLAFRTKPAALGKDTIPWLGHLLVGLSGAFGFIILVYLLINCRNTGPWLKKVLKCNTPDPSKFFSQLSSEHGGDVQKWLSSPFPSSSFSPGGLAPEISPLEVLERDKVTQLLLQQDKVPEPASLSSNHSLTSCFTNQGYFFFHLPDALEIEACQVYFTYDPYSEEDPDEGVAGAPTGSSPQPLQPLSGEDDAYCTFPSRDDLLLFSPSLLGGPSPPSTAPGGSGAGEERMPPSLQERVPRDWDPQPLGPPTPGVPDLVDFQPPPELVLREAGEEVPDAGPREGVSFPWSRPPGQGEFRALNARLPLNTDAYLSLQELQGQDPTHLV
T2 sequence (looked up) 2: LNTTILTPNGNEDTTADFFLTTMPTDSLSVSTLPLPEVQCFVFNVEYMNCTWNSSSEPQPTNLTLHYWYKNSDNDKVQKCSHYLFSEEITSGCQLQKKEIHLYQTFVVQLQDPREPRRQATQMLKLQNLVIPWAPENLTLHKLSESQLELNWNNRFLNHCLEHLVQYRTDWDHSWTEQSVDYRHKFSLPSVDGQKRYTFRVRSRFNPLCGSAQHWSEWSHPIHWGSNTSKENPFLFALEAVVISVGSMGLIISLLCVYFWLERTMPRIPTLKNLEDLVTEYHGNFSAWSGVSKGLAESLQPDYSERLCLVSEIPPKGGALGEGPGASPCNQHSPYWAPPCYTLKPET

[3] = molecular target: T3, Avi-tag Fc with human IL-2R beta and IL-2R gamma attached (Acrobiosystems ACRB-ILG-H82F3-25UG) (human, UniProt P14784 27-239; P31785 23-262); experiment: BLI (Octet R8), receptor on SAX2 sensor
T3 construct: Bought; attached to the SAX2 biosensor; also called CD122 CD132; IL-2R βγ; not shown: Fc and Avi-tag
T3 sequence (looked up) 1: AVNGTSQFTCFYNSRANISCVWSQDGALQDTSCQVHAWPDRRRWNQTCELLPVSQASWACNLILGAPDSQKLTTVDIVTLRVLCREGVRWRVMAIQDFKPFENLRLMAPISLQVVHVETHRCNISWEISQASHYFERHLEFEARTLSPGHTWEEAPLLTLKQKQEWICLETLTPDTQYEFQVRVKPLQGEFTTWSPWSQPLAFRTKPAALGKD
T3 sequence (looked up) 2: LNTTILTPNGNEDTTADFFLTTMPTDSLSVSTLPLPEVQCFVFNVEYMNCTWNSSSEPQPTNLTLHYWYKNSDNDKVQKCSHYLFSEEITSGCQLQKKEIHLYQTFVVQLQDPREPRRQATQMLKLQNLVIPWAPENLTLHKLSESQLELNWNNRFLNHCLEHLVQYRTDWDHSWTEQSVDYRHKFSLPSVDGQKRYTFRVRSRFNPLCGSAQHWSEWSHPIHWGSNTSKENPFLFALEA
Description: (§1) Bilayer interferometry (BLI) assays were used to measure the binding constants between activatable IL-2 polypeptides (and activated versions thereof) to IL-2 receptor subunits or receptor complexes. BLI assays were conducted on an Octet® R8 instrument. Assay plates were 96 well, polypropylene, F-bottom (chimney well), black microplates (Greiner Bio-one, Cat. No: 655209). The biosensors were Octet® SAX2 (Sartorius, Cat. No: 18-5136). The assay buffer was 1X Kinetic Buffer (Sartorius, Cat. no: 18-5136) or Phosphate Buffered Saline (PBS) that contained 0.02% (v: v) Tween 20 (Polysorbate 20) and 0.1% (w/v) bovine serum albumin (BSA). The sensor was regenerated between measurements in 10 mM glycine pH 2.7 buffer.
(§2) Sensor attached receptors were either recombinant human IL-2 receptor beta containing a His-tag and Avi-tag™ (R&D Systems™) or an Avi-tag™ Fc with human IL-2R beta and IL-2R gamma attached (Acrobiosystems Cat. no: ACRB-ILG-H₈₂F3-25UG). Receptors were reconstituted from lyophilized powder to 500 μg/ml in PBS. Analytes were diluted in Kinetic buffer to 300 nM, then serially diluted to lower concentrations.

[4] = molecular target: T4, recombinant human IL-2 receptor beta containing a His-tag and Avi-tag (human, UniProt P14784 27-239); experiment: BLI (Octet R8), receptor on SAX2 sensor; construct CMP-145, not MMP2-treated
T4 construct: Bought; attached to the SAX2 biosensor; also called CD122; IL-2R β; not shown: His-tag and Avi-tag
T4 sequence (looked up): T3 sequence (looked up) 1
Description: as §1, §2

[5] = molecular target: T3, Avi-tag Fc with human IL-2R beta and …; experiment: as above
Description: as §1, §2

IL-2 receptor βγ complex [6] = molecular target: T2, IL-2 receptor βγ complex; experiment: cell-based or functional assay; remark: listed apart in the source
[7] = molecular target: T5, IL-2 receptor βγ complex on human T cells (human, UniProt P14784 27-551; P31785 23-369); experiment: cell-based or functional assay
T5 sequence (looked up) 1: T2 sequence (looked up) 1
T5 sequence (looked up) 2: T2 sequence (looked up) 2

B1: CMP-145, MMP2 cleaved molecule (ligand)
chain: APTSSSTKKTQLQLEHLLLDLQKILNGINNYKNPKLTR[Nle]L[hSer][Yn3]KF[Ygp][Nle]PKKATELKHLQCLEEELKPLEEVL[hSer]LAQSKNFHLRPRDLISNINVIVLELKGSETTF[hSer]CEYADETATIVEFLNRWITFSQSIISTLT
modifications: ends and bridges not checked; also: Lys23 side chain attached to another sequence (cleavable peptide), cut by MMP2, product not given here
[1]
  Average EC50, pSTAT5 Assay in mouse splenocytes: 55.2 nM
IL-2 receptor βγ complex [2]
  Average EC50, pSTAT5 Assay in NK cells: 82 pM and 0.246 nM

B2: CMP-145 (ligand)
chain: APTSSSTKKTQLQLEHLLLDLQKILNGINNYKNPKLTR[Nle]L[hSer][Yn3(3)]KF[Ygp(3)][Nle]PKKATELKHLQCLEEELKPLEEVL[hSer]LAQSKNFHLRPRDLISNINVIVLELKGSETTF[hSer]CEYADETATIVEFLNRWITFSQSIISTLT
modifications: also: Lys23 side chain attached to another sequence (not given here)
notes: Synthetic IL-2 polypeptide, tested intact
[3]
  koff: 0.00117 s⁻¹
[4]
  Kd: 1830 nM
[5]
  Kd: 10.2 nM

B3: CMP-003, MMP2 treated (ligand)
chain: APTSSSTKKTQLQLEHLLLDLQ[Nle]ILNGINNYKNPKLTR[Nle]L[hSer][Yn3]KF[Ygp][Nle]PKKATELKHLQCLEEELKPLEEVL[hSer]LAQSKNFHLRPRDLISNINVIVLELKGSETTF[hSer]CEYADETATIVEFLNRWITFSQSIISTLT
modifications: ends and bridges not checked
[1]
  Average EC50, pSTAT5 Assay in mouse splenocytes: 45.7 nM

B4: CMP-003 (ligand)
chain: APTSSSTKKTQLQLEHLLLDLQ[Nle]ILNGINNYKNPKLTR[Nle]L[hSer][Yn3]KF[Ygp][Nle]PKKATELKHLQCLEEELKPLEEVL[hSer]LAQSKNFHLRPRDLISNINVIVLELKGSETTF[hSer]CEYADETATIVEFLNRWITFSQSIISTLT
modifications: ends and bridges not checked
[1]
  Average EC50, pSTAT5 Assay in mouse splenocytes: 24 nM

B5: CMP-136, MMP2 cleaved molecule (ligand)
chain: APTSSSTKKTQLQLEHLLLDLQ[Nle]ILNGIENYKNPKLTR[Nle]L[hSer][Yn3]KF[Ygp][Nle]PKKATELKHLQCLEEELKPLEEVL[hSer]LAQSKNFHLRPRDLISNINVIVLELKGSETTF[hSer]CEYADETATIVEFLNRWITFSQSIISTLT
modifications: ends and bridges not checked; also: cleaved by MMP2, cleavage product not defined, N-terminal PEG9 link and Glu29 side-chain attachment of the cleavable peptide not defined
[1]
  Average EC50, pSTAT5 Assay in mouse splenocytes: 84.7 nM
IL-2 receptor βγ complex [2]
  Average EC50, pSTAT5 Assay in NK cells: 0.277 nM
IL-2 receptor βγ complex [6]
  Average EC50, pSTAT5 Assay (T cells): 2.4 nM

B6: CMP-130 (ligand)
chain: APTSSSTKKTQLQLE[Dab]LLLDLQ[Nle]ILNGINNYKNPKLTR[Nle]L[hSer][Yn3(7)]KF[Ygp(7)][Nle]PKKATELKHLQCLEEELKPLEEVL[hSer]LAQSKNFHLRPRDLISNINVIVLELKGSETTF[hSer]CEYADETATIVEFLNRWITFSQSIISTLT
modifications: ends and bridges not checked
[7]
  Average EC50, pSTAT5 Assay (T cells), intact molecule: 66.8 nM

B7: CMP-138, MMP2 cleaved molecule (ligand)
chain: APTSSSTKKTQLQLEHLLLDLQ[Nle]ILNGIENYKNPKLTR[Nle]L[hSer][Yn3]KF[Ygp][Nle]PKKATELKHLQCLEEELKPLEEVL[hSer]LAQSKNFHLRPRDLISNINVIVLELKGSETTF[hSer]CEYADETATIVEFLNRWITFSQSIISTLT
modifications: ends and bridges not checked; also: cleaved by MMP2, cleavage product not defined, N-terminal PEG4 link and Glu29 side-chain attachment of the cleavable peptide not defined
[1]
  Average EC50, pSTAT5 Assay in mouse splenocytes: 75.1 nM
IL-2 receptor βγ complex [2]
  Average EC50, pSTAT5 Assay in NK cells: 0.288 nM
IL-2 receptor βγ complex [6]
  Average EC50, pSTAT5 Assay (T cells): 2.32 nM

B8: CMP-151, MMP2 cleaved molecule (ligand)
chain: APTSSSTKKTQLQLEHLLLDLQKILNGINNYKNPKLTR[Nle]L[hSer][Yn3″]KF[Ygp″][Nle]PKKATELKHLQCLEEELKPLEEVL[hSer]LAQSKNFHLRPRDLISNINVIVLELKGSETTF[hSer]CEYADETATIVEFLNRWITFSQSIISTLT
modifications: not fully specified; also: cleaved by MMP2, cleavage product not defined, N-terminal glutaryl-PEG9 link and Lys23 side-chain attachment not defined
[1]
  Average EC50, pSTAT5 Assay in mouse splenocytes: 89.2 nM
IL-2 receptor βγ complex [2]
  Average EC50, pSTAT5 Assay in NK cells: 0.352 nM
IL-2 receptor βγ complex [6]
  Average EC50, pSTAT5 Assay (T cells): 1.81 nM
